The results in this text go back to the supplement of paper PMC10201428.

The subject of this data set is VchCAST RNA-guided transposition machinery (E. coli BL21(DE3) host, lacZ target). Description: relative integration efficiency (T-RL orientation) vs wild-type transposon end (log2 (normalized fold change)); transposon end mutated: left end; higher = more efficient transposition. The method in brief:
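Co-transformation of E. coli BL21(DE3) combined a pUC57 mini-transposon donor, holding barcoded pools of 1549 left-end or 1849 right-end variants, with a T7-driven plasmid encoding a CRISPR array, tniQ-cas8-cas7-cas6 and tnsA-tnsB-tnsC. After plating with 0.1 mM IPTG at 37°C for 18 h, input plasmids and genomic integration junctions were PCR-amplified and Illumina-sequenced across two biological output replicates, with four reference barcodes. Relative integration efficiency is the normalised, log-transformed output/input barcode fold change.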

± gives the standard deviation of the averaged measurements.

As for “AATGTTGTTGATGCAACCATAAAGTGATATTTAATAATTATTTATAATCAGCAACTTCCAACACCCCACCAACGCGCGGTCGCGAGACACCCCACCAACGCCTGGTCGCGGGGGTGTCCGATCTGATTTCAGCAAAACTACTGCAGTAAGAA”, the “relative integration efficiency (log2)” value was -4.36 ± 1.2.

Regarding “AATGTTGTTGATGCAACCATAAAGTGATATTTAATAATTATTTATAATCAGCCAACCATATATTGATATCTCAACTTAACCACAAAAACAAAACAACCATAAGTTGATATTTTTGTGAATCGAGTATTTCAGCAAAACTACTGCAGTAAGAA”, the “relative integration efficiency (log2)” value was -7.27 ± 2.4.

In the case of “AATGTTGTTGATGCAACCATAAAGTGATATTTAATAATTATTTATAATCAGCCAACCATATATTGATATCTCACAAAACAACCATAAGTTGATATTTTAACTTAACCACAAAATGTGAATCGAGTATTTCAGCAAAACTACTGCAGTAAGAA”, the “relative integration efficiency (log2)” value was -6.91 ± 2.5.

As to “AATGTTGTTGATGCAACCATAAAGTGATATTTAATAATTATTTATAATCATACCAGGCCAACACCCCACCAACGCGCGGTCGCGAGACACCCCACCAACGCCTGGTCGCGGGGGTGTCCGATCTGATTTCAGCAAAACTACTGCAGTAAGAA”, the “relative integration efficiency (log2)” value is -6.02 ± 1.1.

Regarding “AATGTTGTTGATGCAACCATAAAGTGATATTTAATAATTATTTATAATCATTGTGAGCGGATAACAACAACCATATATTGATATCTCACAAAACAACCATAAGTTGATATTTTTGTGAATCGAGTATTTCAGCAAAACTACTGCAGTAAGAA”, the “relative integration efficiency (log2)” value was -3.2 ± 0.53.

Take “AATGTTGTTGATGCAACCATAAAGTGATATTTAATAATTATTTATAATCCAACCATATATTGATATCTCACAAAACAACCATAAGTTGATATTTTTGTGAATCGAGTATTTCAGCAAAACTACTGCAGTAAGAAAGTTACTTCGTGGTATGG”: the “relative integration efficiency (log2)” value was -6.76 ± 0.87.

In the case of “AATGTTGTTGATGCAACCATAAAGTGATATTTAATAATTATTTATAATCCAACCATATATTGATATCTCAGCAACTTAACCACAAAAACAAAACAACCATAAGTTGATATTTTTGTGAATCGAGTATTTCAGCAAAACTACTGCAGTAAGAA”, the “relative integration efficiency (log2)” value was -5.59 ± 1.3.

Consider “AATGTTGTTGATGCAACCATAAAGTGATATTTAATAATTATTTATACAACCATATATTGATATCTCACAAAACAACCATAAGTTGATATTTTTGTGAATCGAGTATTTCAGCAAAACTACTGCAGTAAGAAAGTTACTTCGTGGTATGGGAG”, for which the “relative integration efficiency (log2)” value was -6.01 ± 0.81.

In the case of “AATGTTGTTGATGCAACCATAAAGTGATATTTAATAATTATTTATCCGACTACCAGGCCAACACCCCACCAACGCGCGGTCGCGAGACACCCCACCAACGCCTGGTCGCGGGGGTGTCCGATCTGATTTCAGCAAAACTACTGCAGTAAGAA”, the “relative integration efficiency (log2)” value is -6.94 ± 1.3.

For “AATGTTGTTGATGCAACCATAAAGTGATATTTAATAATTATTTCAACCATAAAGTGATATTTAACTTCAACCATATATTGATATCTCACAAAACAACCATAAGTTGATATTTTTGTGAATCGAGTATTTCAGCAAAACTACTGCAGTAAGAA”, the “relative integration efficiency (log2)” value was -6.43 ± 0.89.

For “AATGTTGTTGATGCAACCATAAAGTGATATTTAATAATTATTTCAACCATATATTGATATCTCATAATCAGCAACTTAACCACAAAAACAAAACAACCATAAGTTGATATTTTTGTGAATCGAGTATTTCAGCAAAACTACTGCAGTAAGAA”, the “relative integration efficiency (log2)” value was -5.79 ± 0.8.

For “AATGTTGTTGATGCAACCATAAAGTGATATTTAATAATTCAACCATAAAGTGATATTTAACTTAACCCAACCATATATTGATATCTCACAAAACAACCATAAGTTGATATTTTTGTGAATCGAGTATTTCAGCAAAACTACTGCAGTAAGAA”, the “relative integration efficiency (log2)” value was -4.15 ± 0.95.

Take “AATGTTGTTGATGCAACCATAAAGTGATATTTAATAATTCGGGCGCCGACTACCAGGCCAACACCCCACCAACGCGCGGTCGCGAGACACCCCACCAACGCCTGGTCGCGGGGGTGTCCGATCTGATTTCAGCAAAACTACTGCAGTAAGAA”: the “relative integration efficiency (log2)” value is -7.09 ± 1.

Take “AATGTTGTTGATGCAACCATAAAGTGATATTTATACCGTTCGTATACGATACATTATACGAAGTTATCAACCATATATTGATATCTCACAAAACAACCATAAGTTGATATTTTTGTGAATCGAGTATTTCAGCAAAACTACTGCAGTAAGAA”: the “relative integration efficiency (log2)” value is -4.08 ± 1.3.

Turning to “AATGTTGTTGATGCAACCATAAAGTGATATTTATATTAATAAATATTAGTCGTTGAATTGGTGTTTTCAACCATATATTGATATCTCACAAAACAACCATAAGTTGATATTTTTGTGAATCGAGTATTTCAGCAAAACTACTGCAGTAAGAA”, the “relative integration efficiency (log2)” value is -3.31 ± 1.4.

With “AATGTTGTTGATGCAACCATAAAGTGATATTTATATTCTAAATGTTGATTAATTTGAATCATCATCTCAACCATATATTGATATCTCACAAAACAACCATAAGTTGATATTTTTGTGAATCGAGTATTTCAGCAAAACTACTGCAGTAAGAA”, the “relative integration efficiency (log2)” value was -5.04 ± 1.

“AATGTTGTTGATGCAACCATAAAGTGATATTTATTGACAGCTAGCTCAGTCCTAGGTATAATGCTAGCAACCATATATTGATATCTCACAAAACAACCATAAGTTGATATTTTTGTGAATCGAGTATTTCAGCAAAACTACTGCAGTAAGAA”: the “relative integration efficiency (log2)” value is -8.14 ± 0.72.

As to “AATGTTGTTGATGCAACCATAAAGTGATATTTATTGACGGCTAGCTCAGTCCTAGGTATAGTGCTAGCAACCATATATTGATATCTCACAAAACAACCATAAGTTGATATTTTTGTGAATCGAGTATTTCAGCAAAACTACTGCAGTAAGAA”, the “relative integration efficiency (log2)” value is -6.66 ± 0.33.

As to “AATGTTGTTGATGCAACCATAAAGTGCGCGGGCATAATTATTTATAATCAGCAACTTAACCACAAAACAACCATATATTGCGCGAGAACAAAACAACCATAAGTTGCGCGGGGTGTGAATCGAGTATTTCAGCAAAACTACTGCAGTAAGAA”, the “relative integration efficiency (log2)” value was -7.87 ± 2.2.

Turning to “AATGTTGTTGATGGTTGGTATTTCACTATAAATATAATTATTTATAATCAGCAACTTAACCACAAAACAACCATATATTGATATCTCACAAAACAACCATAAGTTGATATTTTTGTGAATCGAGTATTTCAGCAAAACTACTGCAGTAAGAA”, the “relative integration efficiency (log2)” value is -6.55 ± 1.7.

With “AATGTTGTTGATGGTTGGTATTTCACTATAAATATAATTATTTATAATCAGCAACTTAACCACAAAACAACCATATATTGATATCTCACAAAAGTTGGTATTCAACTATAAAATGTGAATCGAGTATTTCAGCAAAACTACTGCAGTAAGAA”, the “relative integration efficiency (log2)” value is -8.45 ± 0.29.

In the case of “AATGTTGTTGATGGTTGGTATTTCACTATAAATATAATTATTTATAATCAGCAACTTAACCACAAAAGTTGGTATATAACTATAGAGACAAAACAACCATAAGTTGATATTTTTGTGAATCGAGTATTTCAGCAAAACTACTGCAGTAAGAA”, the “relative integration efficiency (log2)” value was -8.28 ± 1.3.

Turning to “AATGTTGTTGATGTGTTGACAACCATAAAGTGATATTTAATAATTATTTATAATCAGCAACTTAACCACAAAACAACCATATATTGATATCTCACAAAACAACCATAAGTTGATATTTTTGTGAATCGAGTATTTCAGCAAAACTACTGCAG”, the “relative integration efficiency (log2)” value is -2.23 ± 0.63.

As for “AATGTTGTTGATGTGTTGATCAACCATAAAGTGATATTTAATAATTATTTATAATCAGCAACTTAACCACAAAACAACCATATATTGATATCTCACAAAACAACCATAAGTTGATATTTTTGTGAATCGAGTATTTCAGCAAAACTACTGCA”, the “relative integration efficiency (log2)” value is -4.39 ± 0.52.
